# From article PMC9352680, “A comprehensive thermodynamic model for RNA binding by the Saccharomyces cerevisiae Pumilio protein PUF4”
# T1: PUF4 RNA-binding domain (Saccharomyces cerevisiae, UniProt P25339 537-888)
# T1 sequence: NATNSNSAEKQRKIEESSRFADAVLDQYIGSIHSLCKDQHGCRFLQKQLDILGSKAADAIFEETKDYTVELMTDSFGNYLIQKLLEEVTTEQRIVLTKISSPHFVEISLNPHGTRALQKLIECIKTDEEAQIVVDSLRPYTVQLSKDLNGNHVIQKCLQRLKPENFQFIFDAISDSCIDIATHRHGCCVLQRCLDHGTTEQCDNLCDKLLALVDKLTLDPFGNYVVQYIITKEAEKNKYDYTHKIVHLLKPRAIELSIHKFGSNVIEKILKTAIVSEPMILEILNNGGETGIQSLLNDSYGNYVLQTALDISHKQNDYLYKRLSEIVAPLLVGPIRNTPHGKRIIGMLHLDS
# Molecular target: T1, PUF4 RNA-binding domain
# Test: Mg; RNA-MaP; 20 mM Na-HEPES pH 7.4, 30 mM KOAc, 0.75 mM MgCl2, 0.1% Tween-20, 5% glycerol, 0.1 mg/mL BSA, 2 mM DTT; 25 C; 0.0125-409.6 nM protein
# Conditions: tags: N-His6-TEV cleaved; C-SNAP kept, Cy3B-labelled; label: tethered on chip by stalled RNA polymerase
row,Binder,Kd
1,Ic_S2_P4E.1_K4.1_C4.1_H4.1_A4.1_[T5A]_[A6C]_[T7A]_F4.1_[A9C]_T4.1 (ssRNA) RNA: UUUGAUUAAUAUGAUAUCGUUCUUUCUUGUAACAUCUUCUUUCUCGAUAUCAUAUUAAUCUUU,16 nM
2,Ic_S2_P4E.1_K4.1_C4.1_H4.1_A4.1_[T5A]_[A6T]_F4.1_[T8G]_[A9T]_T4.1 (ssRNA) RNA: UUUGAUUAAUAUGAUAUCGUUCUUUCUUGUAAUUGUUUCUUUCUCGAUAUCAUAUUAAUCUUU,117 nM
3,Ic_S2_P4E.1_K4.1_C4.1_H4.1_A4.1_[T5A]_[A6T]_[T7A]_F4.1_[T8A]_T4.1 (ssRNA) RNA: UUUGAUUAAUAUGAUAUCGUUCUUUCUUGUAAUAAAUUCUUUCUCGAUAUCAUAUUAAUCUUU,56 nM
4,Ic_S2_P4E.1_K4.1_C4.1_H4.1_A4.1_[T5A]_[A6T]_[T7A]_F4.1_[T8A]_[A9C]_T4.1 (ssRNA) RNA: UUUGAUUAAUAUGAUAUCGUUCUUUCUUGUAAUAACUUCUUUCUCGAUAUCAUAUUAAUCUUU,470 nM
5,Ic_S2_P4E.1_K4.1_C4.1_H4.1_A4.1_[T5A]_[A6T]_F4.1_[T8A]_[A9T]_T4.1 (ssRNA) RNA: UUUGAUUAAUAUGAUAUCGUUCUUUCUUGUAAUUAUUUCUUUCUCGAUAUCAUAUUAAUCUUU,36.2 nM
6,Ic_S2_P4E.1_K4.1_C4.1_H4.1_A4.1_[T5A]_[A6T]_F4.1_[A9C]_T4.1 (ssRNA) RNA: UUUGAUUAAUAUGAUAUCGUUCUUUCUUGUAAUUUCUUCUUUCUCGAUAUCAUAUUAAUCUUU,44.7 nM
7,Ic_S2_P4E.1_K4.1_C4.1_H4.1_A4.1_[T5A]_[A6T]_[T7C]_F4.1_[T8C]_[A9C]_T4.1 (ssRNA) RNA: UUUGAUUAAUAUGAUAUCGUUCUUUCUUGUAAUCCCUUCUUUCUCGAUAUCAUAUUAAUCUUU,454 nM
8,Ic_S2_P4E.1_K4.1_C4.1_H4.1_A4.1_[T5A]_[T7C]_F4.1_[A9G]_T4.1 (ssRNA) RNA: UUUGAUUAAUAUGAUAUCGUUCUUUCUUGUAAACUGUUCUUUCUCGAUAUCAUAUUAAUCUUU,18.3 nM
9,Ic_S2_P4E.1_K4.1_C4.1_H4.1_A4.1_[T5A]_[A6C]_F4.1_[T8G]_[A9T]_T4.1 (ssRNA) RNA: UUUGAUUAAUAUGAUAUCGUUCUUUCUUGUAACUGUUUCUUUCUCGAUAUCAUAUUAAUCUUU,61.3 nM
10,Ic_S2_P4E.1_K4.1_C4.1_H4.1_A4.1_[T5A]_[A6T]_[T7A]_F4.1_[T8C]_T4.1 (ssRNA) RNA: UUUGAUUAAUAUGAUAUCGUUCUUUCUUGUAAUACAUUCUUUCUCGAUAUCAUAUUAAUCUUU,558 nM
11,Ic_S2_P4E.1_K4.1_C4.1_H4.1_A4.1_[T5A]_[A6T]_[T7C]_F4.1_[A9G]_T4.1 (ssRNA) RNA: UUUGAUUAAUAUGAUAUCGUUCUUUCUUGUAAUCUGUUCUUUCUCGAUAUCAUAUUAAUCUUU,24.7 nM
12,Ic_S2_P4E.1_K4.1_C4.1_H4.1_A4.1_[T5A]_[A6T]_[T7C]_F4.1_[T8C]_[A9T]_T4.1 (ssRNA) RNA: UUUGAUUAAUAUGAUAUCGUUCUUUCUUGUAAUCCUUUCUUUCUCGAUAUCAUAUUAAUCUUU,283 nM
13,Ic_S2_P4E.1_K4.1_C4.1_H4.1_A4.1_[T5A]_[A6T]_F4.1_[A9T]_T4.1 (ssRNA) RNA: UUUGAUUAAUAUGAUAUCGUUCUUUCUUGUAAUUUUUUCUUUCUCGAUAUCAUAUUAAUCUUU,22.4 nM
14,Ic_S2_P4E.1_K4.1_C4.1_H4.1_A4.1_[T5A]_[A6T]_[T7C]_F4.1_[T8G]_[A9G]_T4.1 (ssRNA) RNA: UUUGAUUAAUAUGAUAUCGUUCUUUCUUGUAAUCGGUUCUUUCUCGAUAUCAUAUUAAUCUUU,1800 nM
15,Ic_S2_P4E.1_K4.1_C4.1_H4.1_A4.1_[T5A]_[A6T]_[T7G]_F4.1_T4.1 (ssRNA) RNA: UUUGAUUAAUAUGAUAUCGUUCUUUCUUGUAAUGUAUUCUUUCUCGAUAUCAUAUUAAUCUUU,8.85 nM
16,Ic_S2_P4E.1_K4.1_C4.1_H4.1_A4.1_[T5A]_[A6T]_[T7G]_F4.1_[T8C]_[A9T]_T4.1 (ssRNA) RNA: UUUGAUUAAUAUGAUAUCGUUCUUUCUUGUAAUGCUUUCUUUCUCGAUAUCAUAUUAAUCUUU,518 nM
17,Ic_S2_P4E.1_K4.1_C4.1_H4.1_A4.1_[T5A]_[A6T]_[T7C]_F4.1_[A9T]_T4.1 (ssRNA) RNA: UUUGAUUAAUAUGAUAUCGUUCUUUCUUGUAAUCUUUUCUUUCUCGAUAUCAUAUUAAUCUUU,22 nM
18,Ic_S2_P4E.1_K4.1_C4.1_H4.1_A4.1_[T5A]_[A6C]_F4.1_[T8G]_[A9G]_T4.1 (ssRNA) RNA: UUUGAUUAAUAUGAUAUCGUUCUUUCUUGUAACUGGUUCUUUCUCGAUAUCAUAUUAAUCUUU,701 nM
19,Ic_S2_P4E.1_K4.1_C4.1_H4.1_A4.1_[T5A]_[A6T]_F4.1_[T8C]_[A9C]_T4.1 (ssRNA) RNA: UUUGAUUAAUAUGAUAUCGUUCUUUCUUGUAAUUCCUUCUUUCUCGAUAUCAUAUUAAUCUUU,315 nM
20,Ic_S2_P4E.1_K4.1_C4.1_H4.1_A4.1_[T5A]_[A6C]_F4.1_[T8A]_[A9G]_T4.1 (ssRNA) RNA: UUUGAUUAAUAUGAUAUCGUUCUUUCUUGUAACUAGUUCUUUCUCGAUAUCAUAUUAAUCUUU,946 nM
21,Ic_S2_P4E.1_K4.1_C4.1_H4.1_A4.1_[T5A]_[A6T]_[T7C]_F4.1_[T8G]_[A9C]_T4.1 (ssRNA) RNA: UUUGAUUAAUAUGAUAUCGUUCUUUCUUGUAAUCGCUUCUUUCUCGAUAUCAUAUUAAUCUUU,629 nM
22,Ic_S2_P4E.1_K4.1_C4.1_H4.1_A4.1_[T5A]_[A6T]_[T7C]_F4.1_[T8C]_[A9G]_T4.1 (ssRNA) RNA: UUUGAUUAAUAUGAUAUCGUUCUUUCUUGUAAUCCGUUCUUUCUCGAUAUCAUAUUAAUCUUU,648 nM

row,Binder,Kd
1,Ic_S2_P4E.1_K4.1_C4.1_H4.1_A4.1_[T5A]_[A6T]_[T7A]_F4.1_T4.1 (ssRNA) RNA: UUUGAUUAAUAUGAUAUCGUUCUUUCUUGUAAUAUAUUCUUUCUCGAUAUCAUAUUAAUCUUU,1.45 nM
2,Ic_S2_P4E.1_K4.1_C4.1_H4.1_A4.1_[T5A]_[T7C]_F4.1_[T8A]_[A9C]_T4.1 (ssRNA) RNA: UUUGAUUAAUAUGAUAUCGUUCUUUCUUGUAAACACUUCUUUCUCGAUAUCAUAUUAAUCUUU,528 nM
3,Ic_S2_P4E.1_K4.1_C4.1_H4.1_A4.1_[T5A]_[A6T]_[T7C]_F4.1_[T8A]_[A9T]_T4.1 (ssRNA) RNA: UUUGAUUAAUAUGAUAUCGUUCUUUCUUGUAAUCAUUUCUUUCUCGAUAUCAUAUUAAUCUUU,128 nM
4,Ic_S2_P4E.1_K4.1_C4.1_H4.1_A4.1_[T5A]_[A6T]_[T7A]_F4.1_[T8A]_[A9T]_T4.1 (ssRNA) RNA: UUUGAUUAAUAUGAUAUCGUUCUUUCUUGUAAUAAUUUCUUUCUCGAUAUCAUAUUAAUCUUU,94.7 nM
5,Ic_S2_P4E.1_K4.1_C4.1_H4.1_A4.1_[T5A]_[A6C]_F4.1_[T8C]_T4.1 (ssRNA) RNA: UUUGAUUAAUAUGAUAUCGUUCUUUCUUGUAACUCAUUCUUUCUCGAUAUCAUAUUAAUCUUU,324 nM
6,Ic_S2_P4E.1_K4.1_C4.1_H4.1_A4.1_[T5A]_[T7C]_F4.1_[T8A]_T4.1 (ssRNA) RNA: UUUGAUUAAUAUGAUAUCGUUCUUUCUUGUAAACAAUUCUUUCUCGAUAUCAUAUUAAUCUUU,57.8 nM
7,Ic_S2_P4E.1_K4.1_C4.1_H4.1_A4.1_[T5A]_[T7C]_F4.1_[T8C]_[A9T]_T4.1 (ssRNA) RNA: UUUGAUUAAUAUGAUAUCGUUCUUUCUUGUAAACCUUUCUUUCUCGAUAUCAUAUUAAUCUUU,242 nM
8,Ic_S2_P4E.1_K4.1_C4.1_H4.1_A4.1_[T5A]_[T7C]_F4.1_[T8A]_[A9G]_T4.1 (ssRNA) RNA: UUUGAUUAAUAUGAUAUCGUUCUUUCUUGUAAACAGUUCUUUCUCGAUAUCAUAUUAAUCUUU,1140 nM
9,Ic_S2_P4E.1_K4.1_C4.1_H4.1_A4.1_[T5A]_[A6T]_F4.1_[T8C]_[A9T]_T4.1 (ssRNA) RNA: UUUGAUUAAUAUGAUAUCGUUCUUUCUUGUAAUUCUUUCUUUCUCGAUAUCAUAUUAAUCUUU,48 nM
10,Ic_S2_P4E.1_K4.1_C4.1_H4.1_A4.1_[T5A]_[A6T]_[T7A]_F4.1_[A9G]_T4.1 (ssRNA) RNA: UUUGAUUAAUAUGAUAUCGUUCUUUCUUGUAAUAUGUUCUUUCUCGAUAUCAUAUUAAUCUUU,11.1 nM
11,Ic_S2_P4E.1_K4.1_C4.1_H4.1_A4.1_[T5A]_[A6T]_[T7C]_F4.1_[T8A]_[A9G]_T4.1 (ssRNA) RNA: UUUGAUUAAUAUGAUAUCGUUCUUUCUUGUAAUCAGUUCUUUCUCGAUAUCAUAUUAAUCUUU,1430 nM
12,Ic_S2_P4E.1_K4.1_C4.1_H4.1_A4.1_[T5A]_[A6T]_[T7G]_F4.1_[T8C]_[A9C]_T4.1 (ssRNA) RNA: UUUGAUUAAUAUGAUAUCGUUCUUUCUUGUAAUGCCUUCUUUCUCGAUAUCAUAUUAAUCUUU,1040 nM
13,Ic_S2_P4E.1_K4.1_C4.1_H4.1_A4.1_[T5A]_[A6T]_[T7A]_F4.1_[T8G]_[A9C]_T4.1 (ssRNA) RNA: UUUGAUUAAUAUGAUAUCGUUCUUUCUUGUAAUAGCUUCUUUCUCGAUAUCAUAUUAAUCUUU,1120 nM
14,Ic_S2_P4E.1_K4.1_C4.1_H4.1_A4.1_[T5A]_[T7C]_F4.1_[A9C]_T4.1 (ssRNA) RNA: UUUGAUUAAUAUGAUAUCGUUCUUUCUUGUAAACUCUUCUUUCUCGAUAUCAUAUUAAUCUUU,26.1 nM
15,Ic_S2_P4E.1_K4.1_C4.1_H4.1_A4.1_[T5A]_[A6T]_F4.1_[T8C]_[A9G]_T4.1 (ssRNA) RNA: UUUGAUUAAUAUGAUAUCGUUCUUUCUUGUAAUUCGUUCUUUCUCGAUAUCAUAUUAAUCUUU,649 nM
16,Ic_S2_P4E.1_K4.1_C4.1_H4.1_A4.1_[T5A]_[A6T]_[T7C]_F4.1_[T8G]_[A9T]_T4.1 (ssRNA) RNA: UUUGAUUAAUAUGAUAUCGUUCUUUCUUGUAAUCGUUUCUUUCUCGAUAUCAUAUUAAUCUUU,335 nM
17,Ic_S2_P4E.1_K4.1_C4.1_H4.1_A4.1_[T5A]_[A6T]_[T7C]_F4.1_T4.1 (ssRNA) RNA: UUUGAUUAAUAUGAUAUCGUUCUUUCUUGUAAUCUAUUCUUUCUCGAUAUCAUAUUAAUCUUU,2.23 nM
18,UCUCUUUGUACUUAUCUCUU (ssRNA) [Ic_S1_P3E.1_K3.1_C3.1_H3.1_A3.1_[T5C]_[A6T]_F3.1_T3.1],66.4 nM
19,UCUCUUUGUAAGUAUCUCUU (ssRNA) [Ic_S1_P3E.1_K3.1_C3.1_H3.1_A3.1_[T5A]_[A6G]_F3.1_T3.1],1780 nM
20,UCUCUUCGUAUAUUAUCUCUU (ssRNA) [Ia_S1_P4E.1_K4.1_C4.1_H4.1_[T1C]_A4.1_F4.1_T4.1],20.9 nM
21,UCUCUUUGUAACUAUCUCUU (ssRNA) [Ic_S1_P3E.1_K3.1_C3.1_H3.1_A3.1_[T5A]_[A6C]_F3.1_T3.1],271 nM
22,UCUCUUUGUAAUUAUCUCUU (ssRNA) [Ib_S1_P3E.1_K3.1_C3.1_H3.1_A3.1_[T5A]_[A6T]_F3.1_T3.1],155 nM
